# Tests used:
# Assay in all cases: cell-based or functional assay
# [1] = molecular target: ERR Mutant 2 (mouse) (UniProt Q09143)
# [2] = molecular target: ERR Mutant 3 (mouse) (UniProt Q09143)
# [3] = molecular target: ERR Mutant 11 (mouse) (UniProt Q09143)
# [4] = molecular target: ERR Mutant 8 (mouse) (UniProt Q09143)
# [5] = molecular target: ERR Mutant 4 (mouse) (UniProt Q09143)
# [6] = molecular target: Chimera I (mouse-human chimeric receptor, first part from ERR) (mouse; human)
# [7] = molecular target: ERR Mutant 9 (mouse) (UniProt Q09143)
# [8] = molecular target: ERR Mutant 7 (mouse) (UniProt Q09143)
# [9] = molecular target: Chimera III (H13 with NcoI-NcoI fragment from ERR) (human / mouse)
# [10] = molecular target: murine ecotropic retroviral receptor (ERR) (mouse) (UniProt Q09143)
# [11] = molecular target: human H13 (human) (UniProt P30825)
# [12] = molecular target: ERR Mutant 10 (mouse) (UniProt Q09143)
# [13] = molecular target: Chimera II (mouse-human chimeric receptor, last part from ERR) (human; mouse)
# [14] = molecular target: ERR Mutant 5 (mouse) (UniProt Q09143)
# [15] = molecular target: ERR Mutant 1 (mouse) (UniProt Q09143)
# [16] = molecular target: ERR Mutant 6 (mouse) (UniProt Q09143)
# Chain of UniProt P30825 (P30825 other isoform, or with tags, fused parts or gaps): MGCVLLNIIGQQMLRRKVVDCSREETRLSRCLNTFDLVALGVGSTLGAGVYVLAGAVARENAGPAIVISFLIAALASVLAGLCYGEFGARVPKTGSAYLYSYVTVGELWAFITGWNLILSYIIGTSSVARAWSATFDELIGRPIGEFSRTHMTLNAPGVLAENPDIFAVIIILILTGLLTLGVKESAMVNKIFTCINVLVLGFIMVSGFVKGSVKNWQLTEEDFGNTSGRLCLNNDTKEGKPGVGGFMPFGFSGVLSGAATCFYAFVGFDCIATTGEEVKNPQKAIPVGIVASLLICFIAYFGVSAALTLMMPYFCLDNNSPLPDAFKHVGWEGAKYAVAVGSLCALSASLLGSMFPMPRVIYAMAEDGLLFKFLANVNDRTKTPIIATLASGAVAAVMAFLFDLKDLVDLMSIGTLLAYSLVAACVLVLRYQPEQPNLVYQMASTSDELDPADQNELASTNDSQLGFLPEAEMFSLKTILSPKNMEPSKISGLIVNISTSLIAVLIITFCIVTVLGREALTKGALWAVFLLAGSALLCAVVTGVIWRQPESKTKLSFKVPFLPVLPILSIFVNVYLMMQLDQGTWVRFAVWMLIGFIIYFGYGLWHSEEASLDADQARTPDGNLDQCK
substance,measurement,setting,value
"recombinant MuLV-E, ψCRE/BAG virions (from UniProt P03385 34-469)",colonies,[1],500 colonies
same,colonies,[2],500 colonies
same,colonies,[3],500 colonies
same,colonies,[4],500 colonies
same,colonies,[5],500 colonies
same,numbers of G418-resistant colonies,[6],1000 colonies
same,colonies,[7],500 colonies
same,colonies,[8],0 colonies
same,numbers of G418-resistant colonies,[9],1000 colonies
same,numbers of G418-resistant colonies,[10],> 1000 colonies
same,numbers of G418-resistant colonies,[11],0 colonies
same,colonies,[12],500 colonies
same,numbers of G418-resistant colonies,[13],0 colonies
same,colonies,[14],500 colonies
same,colonies,[15],500 colonies
same,colonies,[16],500 colonies
